Test results as given in PMC11579972 (Small (Weinheim an Der Bergstrasse, Germany), 2024).

What was measured:
[1] = target: T1, An‐FD, Pro‐Asp‐(Phe‐Asp)5‐Pro; assay: MST
T1 peptide: PDFDFDFDFDFDP

[2] = target: T1, An‐FD, Pro‐Asp‐(Phe‐Asp)5‐Pro; assay: ITC
[3] = target: T2, Sc‐FD (a scrambled version of An‐FD); assay: ITC
T2 peptide: DFFPDDPFDFFDD

[4] = target: T3, An‐FD, Pro‐Asp‐(Phe‐Asp)5‐Pro; assay: other fluorescence titration
T3 chain: PDFDFDFDFDFDP

Kd [1]: 50 ± 8 µM | Kd [2]: ~40 µM | dH [2]: -8.37 kcal/mol | stoichiometry N [2]: 1.12 | dH [3]: 1.43 ± 2.87 kcal/mol
B1: Cat‐FK, Pro‐Lys‐(Phe‐Lys)5‐Pro (peptide)
peptide: PKFKFKFKFKFKP
critical coassembly concentration (CCC) at 25% An-FD [4]: 0.096, 0.058, and 0.14 mM | critical coassembly concentration (CCC) at 50% An-FD [4]: 0.096, 0.058, and 0.14 mM | critical coassembly concentration (CCC) at 75% An-FD [4]: 0.096, 0.058, and 0.14 mM
